Target: Cysless ATL1_(cyto)-K400C (human) (UniProt Q8WXF7)
Assay: single-molecule photobleaching step counting (TIRF); LD655-labelled, biotinylated ATL1cyto-K mixed at ~2 μM with 1 mM GTPγS or GDP/AlF4-, diluted and immobilised (~0.3 nM) in a streptavidin-coated microfluidic chamber

stoichiometry N: 2
Substance: Cysless ATL1_(cyto)-K400C (from UniProt Q8WXF7 1-447) (domain or fragment)

From article PMC10954664
